{"source": "paper PMC4119988", "about": "(British Journal of Cancer, 2014)", "binders": {"B1": {"name": "scFv-C1 (scFv, V domains shown)", "VH": "EVQLLESGGGLVQPGGSLGLSCVASGFTFSDRWMSWVRQAPGKGLEWVAKIKQDGSEKLYVDSVKGRFTIPRDNSKNSLYLQMDSLRAEDTAVYYCVRGAGWLLDHWGQGILVTVSS", "VL": "SYVLTQPPSVSVAPGKTARITCGGNNIGRKSVHWYQQKPGQAPVLVVYDDSDRPSGIPERFSGSNSGNTATLTISRVEAGDEADYYCQVWDSSSDHSNWVFGGGTQLTVL"}}, "molecular_target": "OTU domain-containing protein 1 (Homo sapiens (Human)., UniProt Q5VV17)", "sequence (Q5VV17 whole entry, the tested form may be a part)": "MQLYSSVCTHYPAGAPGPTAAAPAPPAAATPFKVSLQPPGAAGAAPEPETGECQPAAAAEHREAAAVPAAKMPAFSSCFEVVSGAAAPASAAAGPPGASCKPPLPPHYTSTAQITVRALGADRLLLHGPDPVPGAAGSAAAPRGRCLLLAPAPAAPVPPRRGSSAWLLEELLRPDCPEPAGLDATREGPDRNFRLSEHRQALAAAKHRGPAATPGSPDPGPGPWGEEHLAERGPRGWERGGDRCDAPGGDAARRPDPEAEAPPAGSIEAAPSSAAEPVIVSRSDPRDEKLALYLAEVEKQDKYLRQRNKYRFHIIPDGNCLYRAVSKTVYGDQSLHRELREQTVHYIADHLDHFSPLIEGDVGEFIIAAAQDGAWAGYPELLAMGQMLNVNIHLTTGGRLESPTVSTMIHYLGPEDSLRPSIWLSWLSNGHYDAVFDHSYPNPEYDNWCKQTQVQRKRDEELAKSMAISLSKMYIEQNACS", "test": "far-Western, overlay or dot blot"}
{"binder": "B1", "values": [{"measurement": "binding result", "result": "binds"}]}
